Data: patent publication US10280205B2, “Method for treating cancer with an activated T lymphocyte that selectively recognizes a cancer cell consisting of specific peptide” (immatics biotechnologies GmbH, priority 2015, dated 2019)

molecular target: HLA-A*02:01 (Homo sapiens, UniProt P04439, D140Y/D185E/D98H/E176V/E277Q/G131W/G231S/I119V/I121R/I166T/I218V/L300P/L318F/N151K/N90K/P208A/P217A/Q86G/Q94H/R138H/R169H/T345S); experiment: MHC binding assay: UV-ligand exchange with beta2m ELISA (exchange yield); conditions: binding to HLA-A*02:01, β2m ELISA
In short: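 Peptide–HLA-A*02:01 complexes formed by UV-induced exchange of a photocleavable ligand for the test peptide. Exchange products diluted 100-fold and captured on streptavidin-coated plates. Stabilized complexes detected with HRP anti-β2m (1 h, 37° C.) and TMB, A450; exchange yield reported.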

| Substance | Peptide exchange (MHC class I binding score, peptide exchange yield) |
| --- | --- |
| 346 (LLDSKVPSV; listed as Homo sapiens) [compound 346] | “+++” (≥50 = +++) |
| 347 (SLFKHDPAAWEA; listed as Homo sapiens) [compound 347] | “++++” (≥75% = ++++) |
| 348 (ILLDVKTRL; listed as Homo sapiens) [compound 348] | “++++” (≥75% = ++++) |
| 349 (SLTEYLQNV; listed as Homo sapiens) [compound 349] | “++++” (≥75% = ++++) |
| 350 (ALLDVTHSELTV; listed as Homo sapiens) [compound 350] | “+++” (≥50 = +++) |
| 351 (SLIPNLRNV; listed as Homo sapiens) [compound 351] | “+++” (≥50 = +++) |
| 352 (SLLELLHIYV; listed as Homo sapiens) [compound 352] | “+++” (≥50 = +++) |
| 353 (YLFEMDSSL; listed as Homo sapiens) [compound 353] | “++” (≥20% = ++) |
| 354 (LILEGVDTV; listed as Homo sapiens) [compound 354] | “++” (≥20% = ++) |
| 355 (SIQQSIERLLV; listed as Homo sapiens) [compound 355] | “++” (≥20% = ++) |
| 356 (KLLGKLPEL; listed as Homo sapiens) [compound 356] | “+++” (≥50 = +++) |
| 357 (SMHDLVLQV; listed as Homo sapiens) [compound 357] | “+++” (≥50 = +++) |
| 358 (ALDEYTSEL; listed as Homo sapiens) [compound 358] | “++++” (≥75% = ++++) |
| 359 (YLLPESVDL; listed as Homo sapiens) [compound 359] | “+++” (≥50 = +++) |
| 361 (ALYELEGTTV; listed as Homo sapiens) [compound 361] | “+++” (≥50 = +++) |
| 362 (TLYGLSVLL; listed as Homo sapiens) [compound 362] | “+++” (≥50 = +++) |
| 363 (KVLDVSDLESV; listed as Homo sapiens) [compound 363] | “++” (≥20% = ++) |
| 364 (LLQNEQFEL; listed as Homo sapiens) [compound 364] | “+++” (≥50 = +++) |
| 365 (YVIDQGETDVYV; listed as Homo sapiens) [compound 365] | “+++” (≥50 = +++) |
| 366 (RLLDMGETDLML; listed as Homo sapiens) [compound 366] | “+++” (≥50 = +++) |
| 367 (SLQNHNHQL; listed as Homo sapiens) [compound 367] | “+++” (≥50 = +++) |

| Substance | Peptide exchange (MHC class I binding score, peptide exchange yield) |
| --- | --- |
| 369 (GLFPEHLIDV; listed as Homo sapiens) [compound 369] | “+++” (≥50 = +++) |
| 370 (SLLQDLVSV; listed as Homo sapiens) [compound 370] | “+++” (≥50 = +++) |
| 371 (FLQAHLHTA; listed as Homo sapiens) [compound 371] | “++++” (≥75% = ++++) |
| 372 (TMLLNIPLV; listed as Homo sapiens) [compound 372] | “++” (≥20% = ++) |
| 373 (SLLEDKGLAEV; listed as Homo sapiens) [compound 373] | “++” (≥20% = ++) |
| 374 (FLLQQHLISA; listed as Homo sapiens) [compound 374] | “++” (≥20% = ++) |
| 375 (SLTETIEGV; listed as Homo sapiens) [compound 375] | “++” (≥20% = ++) |
| 376 (AMFESSQNVLL; listed as Homo sapiens) [compound 376] | “++” (≥20% = ++) |
| 377 (FLLDSSASV; listed as Homo sapiens) [compound 377] | “++” (≥20% = ++) |
| 378 (ALGYFVPYV; listed as Homo sapiens) [compound 378] | “+++” (≥50 = +++) |
| 379 (IMEGTLTRV; listed as Homo sapiens) [compound 379] | “++” (≥20% = ++) |
| 380 (TLIEDEIATI; listed as Homo sapiens) [compound 380] | “++” (≥20% = ++) |
| 381 (FIDEAYVEV; listed as Homo sapiens) [compound 381] | “++” (≥20% = ++) |
| 382 (ALQNYIKEA; listed as Homo sapiens) [compound 382] | “++” (≥20% = ++) |
| 383 (ALLELENSVTL; listed as Homo sapiens) [compound 383] | “+++” (≥50 = +++) |
| 385 (SLLEQGLVEA; listed as Homo sapiens) [compound 385] | “++” (≥20% = ++) |
| 386 (ILFRYPLTI; listed as Homo sapiens) [compound 386] | “+++” (≥50 = +++) |
| 387 (ALFQATAEV; listed as Homo sapiens) [compound 387] | “++++” (≥75% = ++++) |
| 388 (SLTIDGIRYV; listed as Homo sapiens) [compound 388] | “+++” (≥50 = +++) |
| 389 (LLADVTHLL; listed as Homo sapiens) [compound 389] | “++” (≥20% = ++) |
| 390 (ALFMKQIYL; listed as Homo sapiens) [compound 390] | “+++” (≥50 = +++) |

| Substance | Peptide exchange (MHC class I binding score, peptide exchange yield) |
| --- | --- |
| 391 (YVYPQRLNFV; listed as Homo sapiens) [compound 391] | “+++” (≥50 = +++) |
| 392 (ALLHPQGFEV; listed as Homo sapiens) [compound 392] | “++” (≥20% = ++) |
| 393 (GLLDTQTSQVLTA; listed as Homo sapiens) [compound 393] | “++” (≥20% = ++) |
| 394 (LLAVIGGLVYL; listed as Homo sapiens) [compound 394] | “+++” (≥50 = +++) |
| 395 (ALALGGIAVV; listed as Homo sapiens) [compound 395] | “++++” (≥75% = ++++) |
| 396 (ALLPDLPAL; listed as Homo sapiens) [compound 396] | “+++” (≥50 = +++) |
| 397 (YLFGERLLEC; listed as Homo sapiens) [compound 397] | “+++” (≥50 = +++) |
| 398 (KLLEEDGTIITL; listed as Homo sapiens) [compound 398] | “++” (≥20% = ++) |
| 399 (YLFEPLYHV; listed as Homo sapiens) [compound 399] | “+++” (≥50 = +++) |
| 400 (SLLTEQDLWTV; listed as Homo sapiens) [compound 400] | “++” (≥20% = ++) |
| 401 (ILLDDTGLAYI; listed as Homo sapiens) [compound 401] | “+++” (≥50 = +++) |
| 402 (VLFSGALLGL; listed as Homo sapiens) [compound 402] | “++” (≥20% = ++) |
| 403 (KLYDRILRV; listed as Homo sapiens) [compound 403] | “++” (≥20% = ++) |
| 405 (ALYDVFLEV; listed as Homo sapiens) [compound 405] | “++” (≥20% = ++) |
| 407 (YLMDLINFL; listed as Homo sapiens) [compound 407] | “+++” (≥50 = +++) |
| 408 (VLDDSIYLV; listed as Homo sapiens) [compound 408] | “++” (≥20% = ++) |
| 409 (LLDAMNYHL; listed as Homo sapiens) [compound 409] | “++” (≥20% = ++) |
| 412 (YLDDLNEGVYI; listed as Homo sapiens) [compound 412] | “++” (≥20% = ++) |
| 426 (RLADKSVLV; listed as Homo sapiens) [compound 426] | “+++” (≥50 = +++) |
